This experiment deals with phosphodiesterase 6 delta subunit (PDE6δ), N-terminal histidine-tagged (UniProt O43924 1-150). The experiment is described as follows: FP; mantGppNHp-loaded Arl; stopped-flow.

For orientation: koff means a measure of how fast the partners let go of each other. Low readings indicate slow dissociation, high ones fast dissociation.

Chain of phosphodiesterase 6 delta subunit (PDE6δ), N-terminal histidine-tagged (O43924 whole entry, stated change not applied): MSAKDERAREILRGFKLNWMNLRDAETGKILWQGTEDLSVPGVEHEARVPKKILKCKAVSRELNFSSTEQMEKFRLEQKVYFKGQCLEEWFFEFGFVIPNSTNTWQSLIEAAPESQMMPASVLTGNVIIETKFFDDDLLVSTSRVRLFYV

B1: full-length Arl2, C-terminal histidine-tagged, bound to GppNHp or mantGppNHp (natural protein)
chain: MGLLTILKKMKQKERELRLLMLGLDNAGKTTILKKFNGEDVDTISPTLGFNIKTLEHRGFKLNIWDVGGQKSLRSYWRNYFESTDGLIWVVDSADRQRMQDCQRELQSLLVEERLAGATLLIFANKQDLPGALSCNAIQEALELDSIRSHHWRIQGCSAVTGEDLLPGIDWLLDDISSRVFTAD
The molecule B1 showed a koff of 0.33 s⁻¹.

B2: N-terminally truncated Arl2 (aa 17-178), bound to mantGppNHp (domain or fragment)
chain: LRLLMLGLDNAGKTTILKKFNGEDVDTISPTLGFNIKTLEHRGFKLNIWDVGGQKSLRSYWRNYFESTDGLIWVVDSADRQRMQDCQRELQSLLVEERLAGATLLIFANKQDLPGALSCNAIQEALELDSIRSHHWRIQGCSAVTGEDLLPGIDWLLDDISS
Turning to B2, the koff is 0.98 s⁻¹.

(Values after article PMC5512577 (2016).)
